Experimental findings from patent US7732183B2, “Method for refolding enzymes” (Elan Pharmaceuticals, Inc., priority 2001, dated 2010) are described below.

Several values for one entry are separate records, joined by “and”; a condition that tells them apart may be missing. Equal entries are not always repeated.

Type in all cases: biochemical
For data set [1], the system named is substrate SEISY↓EVEFRWKK [SEQ ID NO:9] or GLTNIKTEEISEISY↓EVEFRWKK [SEQ ID NO:10]. Description: BACE activity assay: HPLC with fluorescence detection of peptide substrate cleavage. The note with it: for Activity %: relative to recombinant BACE expressed in CHO cells (=100), E. coli enzymes refolded as in Example 4 and purified. The protocol: (§1) Peptide substrates SEISY↓EVEFRWKK [SEQ ID NO: 9] and GLTNIKTEEISEISY↓EVEFRWKK [SEQ ID NO: 10] were synthesized by solid-phase technology (arrows indicating cleavage site). The assay mixture contained in a volume of 200 μl, 0.1 M Sodium acetate, pH 5.0, 0.5-20 nM BACE and 25 μM substrate SEISY↓EVEFRWKK [SEQ ID NO:9] or GLTNIKTEEISEISY↓EVEFRWKK [SEQ ID NO:10]. The reaction mixture was incubated for 2 hours at 37° C.; reactions were stopped with 100 μl of 4% TFA in H2O. A 50 μl portion was injected into an Agilent 1100 Series HPLC equipped with an Alltech Rocket™ column (7 mm i.d.×53 mm length, C18, 3 μm) pre-equilibrated with 88% reagent A (0.1% TFA in water), 12% reagent B (0.1% TFA in acetonitrile). The flow rate over this column was 3 ml per minute. The products (including uncleaved substrate) were eluted from the column with the following linear gradients:
(§2) The Agilent 1100 Series HPLC is equipped with a fluorescence detector that allows detection of the substrate disappearance and EVEFRWKK [SEQ ID NO:29] product formation. Activity was expressed as Fluorescence peak area generated by the liberation of a fluorescent (Tryptophan fluorescence) product upon cleavage of substrate. Fluorescence detection is monitored at 348 nM upon excitation at 280 nm.

The subject of data set [2] is GLTNIKTEEISEISY-↓-EVEFRWKK [SEQ ID NO: 10]. The data set is described as follows: Kinetic comparison of CHO and E. coli BACE (Vmax, kcat, Km). The note with it: substrate SEQ ID NO: 10, 1 to 300 μM; pH 5.5, 50 mM NaCl, 37° C., 1 h, enzyme 1 nM.
In data set [3] the test system is SEISY-↓-EVEFRWKK [SEQ ID NO: 9]. Described as above. The settings on record: substrate SEQ ID NO: 9, 1 to 300 μM; pH 5.5, 50 mM NaCl, 37° C., 1 h, enzyme 1 nM.
The target of data set [4] is T1, EIDL-↓-MVLDWHDR [SEQ ID NO: 13] (Homo sapiens, UniProt P56817).
T1 construct: made in house; host or cells: CHO cells, purified from conditioned media
The data set is described as above. The settings on record: substrate SEQ ID NO: 13, 1 to 300 μM; pH 5.5, 50 mM NaCl, 37° C., 1 h, enzyme 1 nM.

The target in data set [5] is T2, substrate SEISY↓EVEFRWKK [SEQ ID NO:9] or GLTNIKTEEISEISY↓EVEFRWKK [SEQ ID NO:10] (Homo sapiens, UniProt P56817).
T2 construct: made in house; control enzyme from CHO cells
The data set is described as follows: BACE activity assay: HPLC with fluorescence detection of peptide substrate cleavage. The settings on record: relative to CHO BACE, Example 5 optimized refolding method. Here is the method: as §1, §2

B1: pET11a-BACE: T7 tag-GSM-BACE (A-8 to S432), SEQ ID NO:5, expressed in E. coli and refolded (protein, listed as Homo sapiens)
chain: MASMTGGQQMGRGSMAGVLPAHGTQHGIRLPLRSGLGGAPLGLRLPRETDEEPEEPGRRGSFVEMVDNLRGKSGQGYYVEMTVGSPPQTLNILVDTGSSNFAVGAAPHPFLHRYYQRQLSSTYRDLRKGVYVPYTQGKWEGELGTDLVSIPHGPNVTVRANIAAITESDKFFINGSNWEGILGLAYAEIARPDDSLEPFFDSLVKQTHVPNLFSLQLCGAGFPLNQSEVLASVGGSMIIGGIDHSLYTGSLWYTPIRREWYYEVIIVRVEINGQDLKMDCKEYNYDKSIVDSGTTNLRLPKKVFEAAVKSIKAASSTEKFPDGFWLGEQLVCWQAGTTPWNIFPVISLYLMGEVTNQSFRITILPQQYLRPVEDVATSQDDCYKFAISQSSTGTVMGAVIMEGFYVVFDRARKRIGFAVSACHVHDEFRTAAVEGPFVTLDMEDCGYNIPQTDES
modifications: T7 tag
Consider B1, for which the Activity % was 47% in data set [1], “about 47%” in data set [1] (listed as pET11a BACE) and 28% in data set [1] (listed as recombinant BACE).

B2: PcDNA3.1Asp2LΔTM(His)6 + HIV Pr: CHO-expressed BACE cleaved with HIV-1 protease, SEQ ID NO:32 (protein, listed as Homo sapiens)
chain: VEMVDNLRGKSGQGYYVEMTVGSPPQTLNILVDTGSSNFAVGAAPHPFLHRYYQRQLSSTYRDLRKGVYVPYTQGKWEGELGTDLVSIPHGPNVTVRANIAAITESDKFFINGSNWEGILGLAYAEIARPDDSLEPFFDSLVKQTHVPNLFSLQLCGAGFPLNQSEVLASVGGSMIIGGIDHSLYTGSLWYTPIRREWYYEVIIVRVEINGQDLKMDCKEYNYDKSIVDSGTTNLRLPKKVFEAAVKSIKAASSTEKFPDGFWLGEQLVCWQAGTTPWNIFPVISLYLMGEVTNQSFRITILPQQYLRPVEDVATSQDDCYKFAISQSSTGTVMGAVIMEGFYVVFDRARKRIGFAVSACHVHDEFRTAAVEGPFVTLDMEDCGYNIPQTDESHHHHHH
modifications: His6 tag; HIV Protease treated BACE Asp2-2L-TM-His6
For the molecule B2, the “more enzymatic activity than untreated BACE” value in data set [1] (BACE expressed in CHO cells, HIV-1 protease treated and purified) is reported as 10-20%. The Activity % in data set [1] is listed as 120%.

B3: PcDNA3.1Asp2LΔTM(His)6: Recombinant human BACE lacking transmembrane domain, His6 tag, expressed in CHO cells (control), SEQ ID NO:23 (protein, listed as Homo sapiens)
chain: MAQALPWLLLWMGAGVLPAHGTQHGIRLPLRSGLGGAPLGLRLPRETDEEPEEPGRRGSFVEMVDNLRGKSGQGYYVEMTVGSPPQTLNILVDTGSSNFAVGAAPHPFLHRYYQRQLSSTYRDLRKGVYVPYTQGKWEGELGTDLVSIPHGPNVTVRANIAAITESDKFFINGSNWEGILGLAYAEIARPDDSLEPFFDSLVKQTHVPNLFSLQLCGAGFPLNQSEVLASVGGSMIIGGIDHSLYTGSLWYTPIRREWYYEVIIVRVEINGQDLKMDCKEYNYDKSIVDSGTTNLRLPKKVFEAAVKSIKAASSTEKFPDGFWLGEQLVCWQAGTTPWNIFPVISLYLMGEVTNQSFRITILPQQYLRPVEDVATSQDDCYKFAISQSSTGTVMGAVIMEGFYVVFDRARKRIGFAVSACHVHDEFRTAAVEGPFVTLDMEDCGYNIPQTDESHHHHHH
modifications: His6 tag; Human soluble BACE with 6-His tag
In general, Km refers to the substrate concentration at which the rate is half of its maximum. For orientation: Vmax means the rate approached at saturating substrate. One may read the kcat as the number of substrate molecules converted per active site and unit of time at saturation. B3: in data set [2], the Km was 4.9 µM, the Vmax was 0.435 µmol/min/mg and the kcat turned out to be 0.345 s⁻¹. Besides, the Activity % in data set [1] was found to be 100%. In addition, in data set [3], the Michaelis-Menten constant (Km) is 52 µM, the Vmax was found to be 0.294 µmol/min/mg and the kcat came out at 0.233 s⁻¹. Moreover, in data set [4], the Km was 12 µM, the Vmax was found to be 0.0196 µmol/min/mg and the kcat came to 0.0155 s⁻¹.

B4: pET11a-BACE + HIV Pr: V40 to S432 BACE fragment, SEQ ID NO:31, obtained by HIV-1 protease treatment of pET11a-BACE (protein, listed as Homo sapiens)
chain: VEMVDNLRGKSGQGYYVEMTVGSPPQTLNILVDTGSSNFAVGAAPHPFLHRYYQRQLSSTYRDLRKGVYVPYTQGKWEGELGTDLVSIPHGPNVTVRANIAAITESDKFFINGSNWEGILGLAYAEIARPDDSLEPFFDSLVKQTHVPNLFSLQLCGAGFPLNQSEVLASVGGSMIIGGIDHSLYTGSLWYTPIRREWYYEVIIVRVEINGQDLKMDCKEYNYDKSIVDSGTTNLRLPKKVFEAAVKSIKAASSTEKFPDGFWLGEQLVCWQAGTTPWNIFPVISLYLMGEVTNQSFRITILPQQYLRPVEDVATSQDDCYKFAISQSSTGTVMGAVIMEGFYVVFDRARKRIGFAVSACHVHDEFRTAAVEGPFVTLDMEDCGYNIPQTDES
modifications: BACE V40- S432 fragment
Take B4: the “increase in enzyme activity after HIV-1 protease treatment versus untreated enzyme” value in data set [1] (HIV-1 protease cleavage at F39-V40, then purification) is reported as “about 5 fold”. Further, the Activity % in data set [1] was 248%; in data set [1] (listed as V^40 . . . S^432), 248% and 222%.

B5: pQE80L-BACE + HIV Pr: V40 to S432 BACE fragment, SEQ ID NO:31, obtained by HIV-1 protease treatment of pQE80L-BACE (protein, listed as Homo sapiens)
chain: VEMVDNLRGKSGQGYYVEMTVGSPPQTLNILVDTGSSNFAVGAAPHPFLHRYYQRQLSSTYRDLRKGVYVPYTQGKWEGELGTDLVSIPHGPNVTVRANIAAITESDKFFINGSNWEGILGLAYAEIARPDDSLEPFFDSLVKQTHVPNLFSLQLCGAGFPLNQSEVLASVGGSMIIGGIDHSLYTGSLWYTPIRREWYYEVIIVRVEINGQDLKMDCKEYNYDKSIVDSGTTNLRLPKKVFEAAVKSIKAASSTEKFPDGFWLGEQLVCWQAGTTPWNIFPVISLYLMGEVTNQSFRITILPQQYLRPVEDVATSQDDCYKFAISQSSTGTVMGAVIMEGFYVVFDRARKRIGFAVSACHVHDEFRTAAVEGPFVTLDMEDCGYNIPQTDES
modifications: BACE V40- S432 fragment
On to B5, for which the Activity % in data set [1] stood at 222%.

B6: pQE70-BACE: (M)R36 to S432 BACE-RS(His)6 lacking prosequence, SEQ ID NO:3, expressed in E. coli and refolded (protein, listed as Homo sapiens)
chain: MRGSFVEMVDNLRGKSGQGYYVEMTVGSPPQTLNILVDTGSSNFAVGAAPHPFLHRYYQRQLSSTYRDLRKGVYVPYTQGKWEGELGTDLVSIPHGPNVTVRANIAAITESDKFFINGSNWEGILGLAYAEIARPDDSLEPFFDSLVKQTHVPNLFSLQLCGAGFPLNQSEVLASVGGSMIIGGIDHSLYTGSLWYTPIRREWYYEVIIVRVEINGQDLKMDCKEYNYDKSIVDSGTTNLRLPKKVFEAAVKSIKAASSTEKFPDGFWLGEQLVCWQAGTTPWNIFPVISLYLMGEVTNQSFRITILPQQYLRPVEDVATSQDDCYKFAISQSSTGTVMGAVIMEGFYVVFDRARKRIGFAVSACHVHDEFRTAAVEGPFVTLDMEDCGYNIPQTDESRSHHHHHH
modifications: His6 tag
In the case of B6, in data set [2], the Km worked out at 5.4 µM, the Vmax stood at 0.400 µmol/min/mg and the kcat was found to be 0.317 s⁻¹. Also, the Activity % in data set [5] (first elution from affinity column) amounted to 171%. The molecule further returned an Activity % in data set [5] (second elution from affinity column) of 125%. Also, in data set [3], the Michaelis-Menten constant (Km) came to 55.5 µM, the Vmax is 0.345 µmol/min/mg and the kcat is 0.273 s⁻¹.
